Assay results from article PMC4356369, “An intermolecular binding mechanism involving multiple LysM domains mediates carbohydrate recognition by an endopeptidase” (Acta Crystallographica Section D: Biological Crystallography, 2015).
Each block holds one molecule with its values, some of them ahead of it.

Tests used:
[1] = target: T1, P60_tth (TTHA0266), full-length (Thermus thermophilus, UniProt Q5SLM7); test: microscale thermophoresis; format: binding; details: labelled protein (200 nM); 50 mM phosphate pH 7.5, 0.1% Tween 20; incubated 1 h at 60°C, measured at room temperature; read-out: apparent Kd
T1 construct: full-length P60_tth (LysM1, LysM2, NlpC/P60 catalytic domain); Trx/His/S-tag fusion cut by TEV, expressed in E. coli BL21 Rosetta 2 (DE3)

[2] = target: T2, P60_tth (TTHA0266), full-length (Thermus thermophilus, UniProt Q5SLM7, Y28A/R32A/F50A/Q53A); test: microscale thermophoresis; format: binding; details: labelled protein (200 nM); 50 mM phosphate pH 7.5, 0.1% Tween 20; incubated 1 h at 60°C, measured at room temperature; P60_tth_LysM1_mut (Nus/His/S-tag fusion, tags cleaved)
T2 construct: full-length P60_tth (LysM1, LysM2, NlpC/P60 catalytic domain); Trx/His/S-tag fusion cut by TEV, expressed in E. coli BL21 Rosetta 2 (DE3)

[3] = target: T3, P60_tth (TTHA0266), full-length (Thermus thermophilus, UniProt Q5SLM7, F76A/R80A/E99A); test: microscale thermophoresis; format: binding; details: labelled protein (200 nM); 50 mM phosphate pH 7.5, 0.1% Tween 20; incubated 1 h at 60°C, measured at room temperature; P60_tth_LysM2_mut
T3 construct: full-length P60_tth (LysM1, LysM2, NlpC/P60 catalytic domain); Trx/His/S-tag fusion cut by TEV, expressed in E. coli BL21 Rosetta 2 (DE3)

[4] = target: T4, P60_2LysM (Thermus thermophilus, UniProt Q5SLM7); test: X-ray co-crystal structure, […] Å; format: binding; details: co-crystallized at protein:sugar 1:2; LysM1 and LysM2 of symmetry-related monomers share one ligand; pH 6.5
T4 construct: gene TTHA0266; LysM1-LysM2 only, no catalytic domain; Trx/His/S-tag fusion cut by TEV, expressed in E. coli

[5] = target: P60_cata (catalytic domain of P60_tth alone) (Thermus thermophilus); test: SEC; Superdex 75 10/300 GL, 50 mM Tris-HCl pH 8, 200 mM NaCl, 5 mM beta-mercaptoethanol, 0.5 ml/min; apparent molecular weight from a calibration curve
[6] = target: P60_cata (catalytic domain of P60_tth alone) (Thermus thermophilus); test: SAXS; small-angle X-ray scattering in solution, ESRF beamline BM-29; molecular weight estimated from the scattering; models evaluated with CRYSOL and CORAL
[7] = target: P60_tth (TTHA0266), NlpC/P60 D,L-endopeptidase from Thermus thermophilus, full-length protein (Thermus thermophilus) (UniProt Q5SLM7); test: SEC; Superdex 75 10/300 GL, 50 mM Tris-HCl pH 8, 200 mM NaCl, 5 mM beta-mercaptoethanol, 0.5 ml/min; apparent molecular weight from a calibration curve
[8] = target: P60_tth (TTHA0266), NlpC/P60 D,L-endopeptidase from Thermus thermophilus, full-length protein (Thermus thermophilus) (UniProt Q5SLM7); test: SAXS; small-angle X-ray scattering in solution, ESRF beamline BM-29; molecular weight estimated from the scattering; models evaluated with CRYSOL and CORAL
[9] = target: the molecule itself; test: SEC; Superdex 75 10/300 GL, 50 mM Tris-HCl pH 8, 200 mM NaCl, 5 mM beta-mercaptoethanol, 0.5 ml/min; apparent molecular weight from a calibration curve

T2 sequence (Q5SLM7 entry or part of it Y28A/R32A/F50A/Q53A): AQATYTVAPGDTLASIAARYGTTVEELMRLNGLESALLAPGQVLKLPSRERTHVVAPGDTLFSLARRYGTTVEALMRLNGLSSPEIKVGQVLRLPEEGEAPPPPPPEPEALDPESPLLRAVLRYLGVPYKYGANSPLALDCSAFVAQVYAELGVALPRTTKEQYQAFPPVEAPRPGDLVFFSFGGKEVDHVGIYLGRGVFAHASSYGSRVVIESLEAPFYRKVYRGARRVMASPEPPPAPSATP
T3 sequence (Q5SLM7 entry or part of it F76A/R80A/E99A): as the sequence (Q5SLM7 entry or part of it Y28A/R32A/F50A/Q53A) above, with A14Y, A18R, A36F, A39Q, F62A, R66A, E85A counted along it
T4 sequence (Q5SLM7 15-114 limits assumed): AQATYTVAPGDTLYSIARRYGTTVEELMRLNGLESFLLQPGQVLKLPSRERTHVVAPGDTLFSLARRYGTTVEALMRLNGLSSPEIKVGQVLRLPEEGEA
T1 sequence (Q5SLM7 15-258): as the sequence (Q5SLM7 entry or part of it Y28A/R32A/F50A/Q53A) above, with A14Y, A18R, A36F, A39Q counted along it

Molecule: P60_cata (catalytic domain of P60_tth alone) (domain or fragment)
stoichiometry N [5]: 2
stoichiometry N [6]: 2

B1: P60_1LysM (P60_tth with the N-terminal LysM domain deleted) (domain or fragment, Thermus thermophilus, UniProt Q5SLM7 62-258, looked up)
chain: SRERTHVVAPGDTLFSLARRYGTTVEALMRLNGLSSPEIKVGQVLRLPEEGEAPPPPPPEPEALDPESPLLRAVLRYLGVPYKYGANSPLALDCSAFVAQVYAELGVALPRTTKEQYQAFPPVEAPRPGDLVFFSFGGKEVDHVGIYLGRGVFAHASSYGSRVVIESLEAPFYRKVYRGARRVMASPEPPPAPSATP
notes: TTHA0266 (P60_tth) of Thermus thermophilus without the N-terminal LysM domain (LysM2, linker and catalytic domain); predicted molecular weight 21.4 kDa; with Val69 and Thr74 of the text this puts the first residue at Ser62; The start was worked out from the translated primer and the residue numbers printed for LysM2; the C-terminus is as in the full-length construct; source: E. coli BL21 Rosetta …
stoichiometry N [9]: 2

Second part, led by results:

Kd [1]: 90 ± 19.8 µM
Kd [2]: 321 ± 112 µM
Kd [3]: 292 ± 86.5 µM
Molecule: CC(=O)N[C@H]1[C@H](O[C@H]2[C@H](O)[C@@H](NC(C)=O)[C@H](O[C@H]3[C@H](O)[C@@H](NC(C)=O)C(O)O[C@@H]3CO)O[C@@H]2CO)O[C@H](CO)[C@@H](O[C@@H]2O[C@H](CO)[C@@H](O[C@@H]3O[C@H](CO)[C@@H](O[C@@H]4O[C@H](CO)[C@@H](O)[C@H](O)[C@H]4NC(C)=O)[C@H](O)[C@H]3NC(C)=O)[C@H](O)[C@H]2NC(C)=O)[C@@H]1O (stereo partly drawn) [chitohexaose]
X-ray co-crystal structure, 1.75 Å [4]: solved the crystal structure of P60_2LysM bound to chitohexaose

stoichiometry N [7]: 2
stoichiometry N [8]: 2
Molecule: P60_tth (TTHA0266), NlpC/P60 D,L-endopeptidase from Thermus thermophilus, full-length protein (from UniProt Q5SLM7 1-258) (enzyme)
